For assay [1], the target named is E5-tagged Fcγ receptor IIIa, V158 variant (human). The assay is described as follows: SPR. On the technique in general: Surface plasmon resonance follows binding to a sensor surface in real time, without labels.
For assay [2], the target named is E5-tagged FcγRIIIa V158, produced in CHO cells (human). Description: SPR.

The term Kd denotes the equilibrium constant for the complex coming apart.

Sequence of E5-tagged FcγRIIIa V158, produced in CHO cells (human) (P08637 17-208): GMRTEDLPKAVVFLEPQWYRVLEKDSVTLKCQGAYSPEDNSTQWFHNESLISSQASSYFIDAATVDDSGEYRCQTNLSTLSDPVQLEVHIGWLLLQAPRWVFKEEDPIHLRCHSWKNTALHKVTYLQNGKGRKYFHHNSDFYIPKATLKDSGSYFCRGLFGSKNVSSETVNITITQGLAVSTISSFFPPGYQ
Sequence of E5-tagged Fcγ receptor IIIa, V158 variant (human) (P08637 17-208, change not shown): as the sequence (P08637 17-208) above

In turn, “Trastuzumab co-expressed with β1,4-galactosyltransferase 1 (TZM GT) (antibody)” had a fold increase in affinity upon digalactosylation, relative to TZM in assay [1] of 2 fold. On to “Trastuzumab co-expressed with β4GT1 and RMD, in vitro α2,6-sialylated (antibody)”, for which the Kd in assay [2] is 0.032 µM.

Source of the values: paper PMC9040152.
